Non-standard residues stand in square brackets, D forms with d. No end group written: not given here. pS = N[C@@H](COP(=O)(O)O)C(=O)O
Target: T1, HLA-A*02:01 (human)
T1 construct: MHC monomer first loaded with a UV-sensitive peptide, which is cleaved by UV and exchanged with the test peptide; captured on streptavidin plates; also called peptide-receptive MHC molecules
Assay: UV-ligand exchange + anti-b2m ELISA; +++ = peptide exchange yield >50
From the text: Candidate peptides for T cell based therapies according to the present invention were further tested for their MHC binding capacity (affinity). The individual peptide-MHC complexes were produced by UV-ligand exchange, where a UV-sensitive peptide is cleaved upon UV-irradiation, and exchanged with the peptide of interest as analyzed. Only peptide candidates that can effectively bind and stabilize the peptide-receptive MHC molecules prevent dissociation of the MHC complexes. To determine the yield of the exchange reaction, an ELISA was performed based on the detection of the light chain (β2m) of stabilized MHC complexes. The assay was performed as generally described in Rodenko et al. (Rodenko et al., 2006).
96 well MAXISorp plates (NUNC) were coated over night with 2 ug/ml streptavidin in PBS at room temperature, washed 4× and blocked forth at 37° C. in 2% BSA containing blocking buffer. Refolded HLA-A*02:01/MLA-001 monomers served as standards, covering the range of 15-500 ng/ml. Peptide-MHC monomers of the UV-exchange reaction were diluted 100 fold in blocking buffer. Samples were incubated for 1 h at 37° C., washed four times, incubated with 2 ug/ml HRP conjugated anti-β2m for 1 h at 37° C., washed again and detected with TMB solution that is stopped with […]. Absorption was measured at 450 nm. Candidate peptides that show a high exchange yield (preferably higher than 50%, most preferred higher than 75%) are generally preferred for a generation and production of antibodies or fragments thereof, and/or T cell receptors or fragments thereof, as they show sufficient avidity to the MHC molecules and prevent dissociation of the MHC complexes.

Peptide exchange yield, 50 to 75%:
ILLDTPLFLL (gene: SERHL2)
SLWEENQAL (gene: LAMA5)
LLDLIQTKV (genes: AP2B1, AP1B1)
NLDAATYQV (gene: SLC35A3)
NLHNSYYSV (gene: CCNG2)
RVISSVISV (gene: ELTD1)
LLAGLLVGV (gene: C1orf159)
TMIVSLAAV (gene: ARL6IP1)
AVVSSVNTV (gene: SNCG)
SLDKGTLYI (gene: PLBD1)
GLLSQGSPL (gene: GCLC)
KLTNGIWVL (gene: AP1B1)
GMTELYFQL (gene: PRKDC)
LLQEGEVYSA (gene: PRPF8)
ALSFSSSAGPGLLKA (gene: KRT7)
FLI[pS]LIISV (gene: TAS2R9) [FLIJLIISV]
SLFTGLRSI (genes: DUOX2, DUOX1)
ALASLENHV (gene: TRIM33)
ALLDEQQVNVLL (gene: ID1)
ALDPASISV (gene: DCUN1D1)
FLDPATPRV (gene: TGIF1)
HLLDSKVPSV (gene: ITGB4)
YLFPETEFI (gene: TBX3)
SIVDFLITA (gene: PPP1R13L)
ALADGVPVAL (gene: AP5B1)
QMFEGQILDV (gene: AIM1L)
QIWDKILSV (gene: DHRS2)

From patent US20170253633A1 (IMMATICS BIOTECHNOLOGIES, published 2017)
